# Patent US20020035246, “SMAD-interacting polypeptides and their use” (published 2002)
# T1: SIP1CZF (C-terminal zinc finger cluster of SIP1) (Mus musculus, UniProt Q9R0G7 SEQ:728-805)
# T1 sequence: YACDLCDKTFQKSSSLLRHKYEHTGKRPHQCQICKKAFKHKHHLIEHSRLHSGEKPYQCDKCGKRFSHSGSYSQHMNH
# B1: Brachyury binding site (dsDNA)
# DNA 1: TGACACCTAGGTGTGAATT
# DNA 2: AATTCACACCTAGGTGTCA
# Target: T1, SIP1CZF (C-terminal zinc finger cluster …)
# Test: EMSA; competed by excess unlabeled self
# Details: tags: GST fusion, E. coli; label: 32P
binder,measurement,value
B1,binding result,binds
